This experiment has as its target T1, linear CGQKLVG-conjugated-BSA.
T1 sequence (peptide, conjugated to BSA): CGQKLVG
Kind of experiment: SPR direct binding (MASS-1), linear peptide-BSA immobilised, supernatant flowed.

B1: 305-61 (7E9) (antibody, mouse IgG3, V domains shown)
VH: QVQLQQSGAELVRPGASVTLSCKASGYTFTDYEMHWVKQTPVHGLEWIGAIDPETGDTAYNQEFKGKATLTADKSSSTAYMELRSLTSEDSAVYYCTSPIYYDYDWFAYWGHGTLVTVSA
VL: DIVMSQSPSSLAVSAGEKVTMSCKSSQSLLNNRTRKNYLAWYQQKPGQSPKLLIYWASTRESGVPDRFTGSGSGTDFTLTISSVQAEDLAVYYCKQSYNLRTFGGGTKLEIKR
In turn, B1 displayed a binding response (RU) of 7.7 RU.

(Values after US20210087243A1.)
